± gives the standard deviation of the averaged measurements.
B1: library; a variant is named by its letters at N, in order (parent)
chain: GCUGUCACCGAGAAACUGUGAAGUAUAUCUUAAACCUGGGCACUUAAAAGAUAUAUGGAGUUAGUAGUGCAACCUGCUCGGUCUGAUGAGUCCNNNNNNGGACGAAACAGC

Assays:
cyclic di-GMP [1] = variants of: B1; assay: FACS-Seq fitted mean relative fluorescence mCherry/BFP without ligand (log10 relative fluorescence); HEK293T; ligand: cyclic di-GMP (c-di-GMP-II aptamer); higher = higher reporter protein expression; conditions: ligand present: no
Description: (§1)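 Hammerhead (sTRSV) ribozyme switch libraries with a ligand aptamer grafted on stem I and a randomized N4-6 loop II, cloned into the 3' UTR of mCherry and transiently transfected into HEK293T cells; RNA-Seq 72 h post transfection with ligand added 1 h before transfection; RNA read count / plasmid DNA read count normalized to the non-cleaving sTRSVctl (x100), log10; sequences with >100 DNA reads. FACS-Seq: lentiviral library sorted into 6 bins after 48 h ligand, log-normal fit mean of mCherry/BFP scaled to controls. Printed sequences are partial switch sequences.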

cyclic di-GMP [2] = variants of: B1; assay: normalized RNA/DNA level without ligand (relative to sTRSVctl = 100) (log10 (% of sTRSVctl)); HEK293T; ligand: cyclic di-GMP (c-di-GMP-II aptamer); higher = less ribozyme self-cleavage, higher mRNA level; conditions: reporter: mCherry (pCS4076), ligand present: no
Description: as §1

cyclic di-GMP [3] = variants of: B1; assay: FACS-Seq fitted mean relative fluorescence mCherry/BFP with ligand (log10 relative fluorescence); HEK293T; ligand: cyclic di-GMP (c-di-GMP-II aptamer); ligand concentration (+) FACS-Seq: 1 mM; higher = higher reporter protein expression; conditions: ligand present: yes
Description: as §1

cyclic di-GMP [4] = variants of: B1; assay: normalized RNA/DNA level with ligand (relative to sTRSVctl = 100) (log10 (% of sTRSVctl)); HEK293T; ligand: cyclic di-GMP (c-di-GMP-II aptamer); ligand concentration (+) RNA-Seq: 1 mM; higher = less ribozyme self-cleavage, higher mRNA level; conditions: reporter: mCherry (pCS4076), ligand present: yes
Description: as §1

Variant | FACS-Seq fitted mean (log10) (cyclic di-GMP [1]) | normalized RNA/DNA level without ligand (log10) (cyclic di-GMP [2]) | FACS-Seq fitted mean (log10) (cyclic di-GMP [3]) | normalized RNA/DNA level with ligand (log10) (cyclic di-GMP [4])
AUGUAU | -0.148 ± 0.067 | 1.61 ± 0.036 | 0.196 ± 0.014 | 1.82 ± 0.052
AUGUAC | -0.466 ± 0.057 | 1.6256 ± 0.0011 | -0.129 ± 0.17 | 1.79 ± 0.077
CUAGAC | -0.239 ± 0.047 | 1.67 ± 0.053 | -0.0103 ± 0.011 | 1.81 ± 0.093
CUAGAA | -0.5 ± 0.054 | 1.38 ± 0.091 | -0.134 ± 0.032 | 1.6 ± 0.1
GAAGUU | -0.118 ± 0.022 | 1.55 ± 0.072 | 0.245 ± 0.074 | 1.7 ± 0.091
CGGUCA | -0.42 ± 0.019 | 1.45 ± 0.045 | -0.182 ± 0.032 | 1.59 ± 0.18
GCCAAG | -0.6955 ± 0.0047 | 1.542 ± 0.0066 | -0.362 ± 0.081 | 1.67 ± 0.19
AAAGUC | 0.135 ± 0.29 | 1.574 ± 0.0057 | 0.392 ± 0.048 | 1.75 ± 0.1
AAAGUU | -0.298 ± 0.1 | 1.59 ± 0.068 | 0.0631 ± 0.068 | 1.77 ± 0.03
CAUCCA | -0.794 ± 0.028 | 1.44 ± 0.016 | -0.5192 ± 0.002 | 1.696 ± 0.011
UCAAUU | -0.69 ± 0.034 | 1.585 ± 0.0066 | -0.175 ± 0.22 | 1.77 ± 0.13
ACUACA | -0.0979 ± 0.082 | 1.55 ± 0.03 | 0.212 ± 0.16 | 1.73 ± 0.11
UGACGC | -0.22 ± 0.01 | 1.73 ± 0.027 | 0.123 ± 0.016 | 1.84 ± 0.17
UAACUU | -0.637 ± 0.031 | 1.65 ± 0.005 | -0.458 ± 0.042 | 1.79 ± 0.12
CAACCU | -0.206 ± 0.19 | 1.56 ± 0.069 | -0.0641 ± 0.21 | 1.74 ± 0.096
CAAAGA | -0.231 ± 0.15 | 1.47 ± 0.074 | 0.00425 ± 0.022 | 1.68 ± 0.1
CAAAGU | 0.000886 ± 0.21 | 1.7 ± 0.032 | 0.204 ± 0.087 | 1.79 ± 0.12
CGAAUU | -0.504 ± 0.036 | 1.38 ± 0.11 | -0.238 ± 0.016 | 1.57 ± 0.088

Source: the supplement of paper PMC6757056
